Data: patent US20210040184A1

What was measured:
[1] = molecular target: HIV-1 AC10.0.29 envelope (Env) on Env.IMC.LucR virus (HIV-1 clade B); test: cell-based or functional assay
[2] = molecular target: HIV-1 CAP45.2.00.G3 envelope (Env) on Env.IMC.LucR virus (HIV-1 clade C); test: cell-based or functional assay
[3] = molecular target: HIV-1 CNE20 envelope (Env) on Env.IMC.LucR virus (HIV-1 clade BC); test: cell-based or functional assay
[4] = molecular target: HIV-1 DU172.17 envelope (Env) on Env.IMC.LucR virus (HIV-1 clade C); test: cell-based or functional assay
[5] = molecular target: HIV-1 DU422.1 envelope (Env) on Env.IMC.LucR virus (HIV-1 clade C); test: cell-based or functional assay
[6] = molecular target: HIV-1 REJO4541.67 envelope (Env) on Env.IMC.LucR virus (HIV-1 clade B); test: cell-based or functional assay
[7] = molecular target: HIV-1 X1632_S2_B10 envelope (Env) on Env.IMC.LucR virus (HIV-1 clade G); test: cell-based or functional assay
[8] = molecular target: Clade B BaL gp120 protein (HIV-1 Clade B, BaL); test: BLI (Octet), IgG on anti-hIgG Fc sensor, gp120 analyte, 1:1 fit
[9] = molecular target: Clade C DU172.17 gp120 protein (HIV-1 Clade C, DU172.17); test: as above

Substance: 3BNC117 (antibody)
- IC50 of virus neutralization (TZM-BL, luciferase) [1]: 11 µg/mL
- IC50 of virus neutralization (TZM-BL, luciferase) [2]: 2.7 µg/mL
- IC50 of virus neutralization (TZM-BL, luciferase) [3]: > 50 µg/mL
- IC50 of virus neutralization (TZM-BL, luciferase) [4]: 1.25 µg/mL
- IC50 of virus neutralization (TZM-BL, luciferase) [5]: > 50 µg/mL
- IC50 of virus neutralization (TZM-BL, luciferase) [6]: 0.07 µg/mL
- IC50 of virus neutralization (TZM-BL, luciferase) [7]: 31.2 µg/mL
- Kd [8]: 3.29 nM
- fold (KD vs average of 4 runs of L1A2) [8]: 6.07 fold
- koff [8]: 0.000291 s⁻¹
- kon [8]: 88500 M⁻¹ s⁻¹
- Kd [9]: 95.8 nM
- fold (KD vs average of 4 runs of L1A2) [9]: 3.77 fold
- koff [9]: 0.00457 s⁻¹
- kon [9]: 47700 M⁻¹ s⁻¹
